Consider 5 molecules from paper doi:10.1101/2024.10.03.616038 (2024).

For this assay, the target named is SARS-CoV-2 Spike RBD, original (Wuhan) strain (SARS-CoV-2, UniProt P0DTC2). As to the kind of experiment: SPR.

A word on the Kd: it is the equilibrium constant for the complex coming apart. Lower therefore signals a tighter complex.

B1: REGN10987 (IgG1) (antibody, V domains shown)
VH: QVQLVESGGGVVQPGRSLRLSCAASGFTFSNYAMYWVRQAPGKGLEWVAVISYDGSNKYYADSVKGRFTISRDNSKNTLYLQMNSLRTEDTAVYYCASGSDYGDYLLVYWGQGTLVTVSS
VL: QSALTQPASVSGSPGQSITISCTGTSSDVGGYNYVSWYQQHPGKAPKLMIYDVSKRPSGVSNRFSGSKSGNTASLTISGLQSEDEADYYCNSLTSISTWVFGGGTKLTVL
As to B1, binding was put at a Kd of 14.5 nM.

B2: S2K146 (IgG1) (antibody, V domains shown)
VH: QVQLVESGGVVVQPGGSLRLSCAASGFTFHDHTMHWVRQAPGKGLEWVSLITWNGGTIHYSDSVKGRFTISRDNSKNSLYLQMNSLRTEDTALYYCAKDLGRGGWYLPSDAWGQGTLVTVSS
VL: not shown
The molecule B2 returned a Kd of 0.0457 nM.

B3: DXP-604 (IgG1) (antibody, V domains shown)
VH: EVQLVESGGGLIQPGGSLRLSCAASGIIVSSNYMTWVRQAPGKGLEWVSVIYSGGSTFYADSVKGRFTISRDNSKNTLYLQMSSLRAEDTAVYYCARDLGPYGMDVWGQGTTVTVSS
VL: DIQLTQSPSFLSASVGDRVTITCRASQGISSDLAWYQQKPGKAPNLLIYAASTLQSGVPSRFSGSGSGTEFTLTISSLQPEDFATYYCQQLNSDLYTFGQGTKLEIK
On to B3, for which the dissociation constant (Kd) came to 0.214 nM. Against the preceding molecule, the Kd is about 4.7-fold higher.

B4: BD55-5840 (IgG1) (antibody, V domains shown)
VH: VQLAQSGSELRKPGASVKVSCDTSGHSFTSNAIHWVRQAPGQGLEWMGWINTDTGTPTYAQGFTGRFVFSLDTSARTAYLQISSLKADDTAVFYCARERDYSDYFFDYWGQGTLVTVSS
VL: EVVMTQSPASLSVSPGERATLSCRARASLGISTDLAWYQQRPGQAPRLLIYGASTRATGIPARFSGSGSGTEFTLTISSLQSEDSAVYYCQQYSNWPLTFGGGTKVEIK
Molecule B4 showed a dissociation constant (Kd) of 0.0759 nM.

B5: LY-CoV1404 (IgG1) (antibody, V domains shown)
VH: QITLKESGPTLVKPTQTLTLTCTFSGFSLSISGVGVGWLRQPPGKALEWLALIYWDDDKRYSPSLKSRLTISKDTSKNQVVLKMTNIDPVDTATYYCAHHSISTIFDHWGQGTLVTVSS
VL: QSALTQPASVSGSPGQSITISCTATSSDVGDYNYVSWYQQHPGKAPKLMIFEVSDRPSGISNRFSGSKSGNTASLTISGLQAEDEADYYCSSYTTSSAVFGGGTKLTVL
B5: the dissociation constant Kd was 0.977 nM. This Kd is about 13-fold higher than that of the molecule before.
